Measured values taken from patent US20040235717A1 (published 2004).

T1: androgen receptor, wild type, full length (UniProt P10275 1-920)
T1 construct: also called AR; wtAR
T1 sequence (looked up): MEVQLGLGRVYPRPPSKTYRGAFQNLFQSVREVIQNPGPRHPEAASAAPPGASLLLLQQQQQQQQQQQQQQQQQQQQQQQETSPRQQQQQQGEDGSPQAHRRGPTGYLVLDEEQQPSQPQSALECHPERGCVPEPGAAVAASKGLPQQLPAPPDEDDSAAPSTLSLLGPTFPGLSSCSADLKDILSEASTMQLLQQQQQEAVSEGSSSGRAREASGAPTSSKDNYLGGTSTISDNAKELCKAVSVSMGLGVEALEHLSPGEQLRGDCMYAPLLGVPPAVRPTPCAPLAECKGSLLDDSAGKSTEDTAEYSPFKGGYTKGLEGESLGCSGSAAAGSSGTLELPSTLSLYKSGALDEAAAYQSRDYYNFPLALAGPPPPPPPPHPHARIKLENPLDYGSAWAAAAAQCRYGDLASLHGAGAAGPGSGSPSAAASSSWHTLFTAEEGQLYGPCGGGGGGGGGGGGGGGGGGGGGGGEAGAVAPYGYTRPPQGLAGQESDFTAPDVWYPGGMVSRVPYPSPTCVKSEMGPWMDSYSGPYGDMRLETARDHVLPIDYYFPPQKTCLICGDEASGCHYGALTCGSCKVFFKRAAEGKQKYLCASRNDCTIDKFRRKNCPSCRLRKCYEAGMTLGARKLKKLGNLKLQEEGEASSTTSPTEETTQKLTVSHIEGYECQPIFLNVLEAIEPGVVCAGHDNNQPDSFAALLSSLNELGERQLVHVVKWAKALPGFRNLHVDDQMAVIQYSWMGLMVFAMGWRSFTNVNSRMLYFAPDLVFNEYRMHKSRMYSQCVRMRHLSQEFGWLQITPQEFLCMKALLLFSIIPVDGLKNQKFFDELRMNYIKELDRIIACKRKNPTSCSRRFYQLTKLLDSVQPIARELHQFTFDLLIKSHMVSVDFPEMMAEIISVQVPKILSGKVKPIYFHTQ


Legend:
[1] = target: T1, androgen receptor, wild type, full …; test: GST pull-down of 35S-AR with PTEN deletion mutants
[2] = target: T1, androgen receptor, wild type, full …; test: co-immunoprecipitation in PC-3(AR)2 cells overexpressing Flag-Smad3, Flag-Smad4 and AR
[3] = target: T1, androgen receptor, wild type, full …; test: anti-Smad3 immunoprecipitation from PC-3(AR)2 cells, immunoblot for AR
[4] = target: T1, androgen receptor, wild type, full …; test: co-immunoprecipitation in prostate cancer cells

| binding result [2] | Binder | binding result [1] | further results |
| --- | --- | --- | --- |
|  | GST-PTEN-#3 (aa 253-403) (other, UniProt P60484 253-403, looked up, range 253-403; not shown: glutathione S-transferase (GST), pGEX-3x vector) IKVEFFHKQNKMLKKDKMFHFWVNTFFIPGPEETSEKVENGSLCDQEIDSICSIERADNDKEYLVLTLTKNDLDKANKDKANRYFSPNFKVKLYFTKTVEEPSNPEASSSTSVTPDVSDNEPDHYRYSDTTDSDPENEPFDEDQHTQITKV | no binding |  |
| binds | N-terminal Flag-tagged, full-length Smad3 (other, human, UniProt P84022 1-425, looked up, Expressed in PC-3 or PC-3(AR)2 cells; also called Flag-Smad3; FLAG-Smad3; not shown: N-terminal Flag tag) MSSILPFTPPIVKRLLGWKKGEQNGQEEKWCEKAVKSLVKKLKKTGQLDELEKAITTQNVNTKCITIPRSLDGRLQVSHRKGLPHVIYCRLWRWPDLHSHHELRAMELCEFAFNMKKDEVCVNPYHYQRVETPVLPPVLVPRHTEIPAEFPPLDDYSHSIPENTNFPAGIEPQSNIPETPPPGYLSEDGETSDHQMNHSMDAGSPNLSPNPMSPAHNNLDLQPVTYCEPAFWCSISYYELNQRVGETFHASQPSMTVDGFTDPSNSERFCLGLLSNVNRNAAVELTRRHIGRGVRLYYIGGEVFAECLSDSAIFVQSPNCNQRYGWHPATVCKIPPGCNLKIFNNQEFAALLAQSVNQGFEAVYQLTRMCTIRMSFVKGWGAEYRRQTVTSTPCWIELHLNGPLQWLDKVLTQMGSPSIRCSSVS |  |  |
|  | Smad3 (full length, untagged) (other, human, UniProt P84022 1-425, looked up, also called endogenous Smad3; [35S]-labeled Smad3) MSSILPFTPPIVKRLLGWKKGEQNGQEEKWCEKAVKSLVKKLKKTGQLDELEKAITTQNVNTKCITIPRSLDGRLQVSHRKGLPHVIYCRLWRWPDLHSHHELRAMELCEFAFNMKKDEVCVNPYHYQRVETPVLPPVLVPRHTEIPAEFPPLDDYSHSIPENTNFPAGIEPQSNIPETPPPGYLSEDGETSDHQMNHSMDAGSPNLSPNPMSPAHNNLDLQPVTYCEPAFWCSISYYELNQRVGETFHASQPSMTVDGFTDPSNSERFCLGLLSNVNRNAAVELTRRHIGRGVRLYYIGGEVFAECLSDSAIFVQSPNCNQRYGWHPATVCKIPPGCNLKIFNNQEFAALLAQSVNQGFEAVYQLTRMCTIRMSFVKGWGAEYRRQTVTSTPCWIELHLNGPLQWLDKVLTQMGSPSIRCSSVS |  | binding result [3]: binds |
|  | GST-PTEN-#1 (aa 1-107) (other, UniProt P60484 1-107, looked up, not shown: glutathione S-transferase (GST), pGEM-KG vector) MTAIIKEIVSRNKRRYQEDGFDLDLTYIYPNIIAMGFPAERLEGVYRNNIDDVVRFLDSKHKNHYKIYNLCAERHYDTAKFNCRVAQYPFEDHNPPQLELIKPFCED | no binding |  |
|  | PTEN (phosphatase and tensin homolog deleted on chromosome ten), wild type, full length (enzyme, Stood as in vitro expressed 35S-PTEN, as Dox-induced PTEN in LNCaP PTEN-C1 cells, as endogenous PTEN of CWR22 cells and as transfected PTEN in COS-1 cells; also called [35S]-PTEN; pCDNA3-PTEN) not shown |  | binding result [4]: binds |
| binds | N-terminal Flag-tagged, full-length Smad4 (other, human, UniProt Q13485 1-552, looked up, Expressed in PC3-AR2 cells; also called Flag-Smad4; FLAG-Smad4; not shown: N-terminal Flag tag) MDNMSITNTPTSNDACLSIVHSLMCHRQGGESETFAKRAIESLVKKLKEKKDELDSLITAITTNGAHPSKCVTIQRTLDGRLQVAGRKGFPHVIYARLWRWPDLHKNELKHVKYCQYAFDLKCDSVCVNPYHYERVVSPGIDLSGLTLQSNAPSSMMVKDEYVHDFEGQPSLSTEGHSIQTIQHPPSNRASTETYSTPALLAPSESNATSTANFPNIPVASTSQPASILGGSHSEGLLQIASGPQPGQQQNGFTGQPATYHHNSTTTWTGSRTAPYTPNLPHHQNGHLQHHPPMPPHPGHYWPVHNELAFQPPISNHPAPEYWCSIAYFEMDVQVGETFKVPSSCPIVTVDGYVDPSGGDRFCLGQLSNVHRTEAIERARLHIGKGVQLECKGEGDVWVRCLSDHAVFVQSYYLDREAGRAPGDAVHKIYPSAYIKVFDLRQCHRQMQQQAATAQAAAAAQAAAVAGNIPGPGSVGGIAPAISLSAAAGIGVDDLRRLCILRMSFVKGWGPDYPRQSIKETPCWIEIHLHRALQLLDEVLHTMPIADPQPLD |  |  |
